Data taken from publication PMC6016464, “Folding and binding pathways of BH3-only proteins are encoded within their intrinsically disordered sequence, not templated by partner proteins” (The Journal of Biological Chemistry, 2018).
Where no end group is shown, it is not given here. The star is where a group is joined. TAMRA = 5-carboxytetramethylrhodamine, CN(C)c1ccc2c(-c3ccc(C(=O)*)cc3C(=O)[O-])c3ccc(=[N+](C)C)cc-3oc2c1

T1: A1 protein (mouse, residues 1-152, P104K C113S, used as wild type) (mouse)
T1 sequence (Q07440 1-152 with P104K C113S, looked up): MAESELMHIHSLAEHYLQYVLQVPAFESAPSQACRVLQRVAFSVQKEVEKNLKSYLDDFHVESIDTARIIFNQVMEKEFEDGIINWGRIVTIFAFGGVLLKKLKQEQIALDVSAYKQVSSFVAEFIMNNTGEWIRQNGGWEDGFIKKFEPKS

T2: MCL-1 (mouse, residues 152-308) (mouse)
T2 construct: remnant of thrombin cleavage at the N-terminus of MCL-1; MCL-1, mouse, residues 152-308, UniProt P97287; source: E. coli C41 pLysS, purified (Ni2+ agarose, thrombin cleavage, ion exchange, Superdex G75 gel filtration); not shown: His6, N-terminal, cleaved
T2 chain: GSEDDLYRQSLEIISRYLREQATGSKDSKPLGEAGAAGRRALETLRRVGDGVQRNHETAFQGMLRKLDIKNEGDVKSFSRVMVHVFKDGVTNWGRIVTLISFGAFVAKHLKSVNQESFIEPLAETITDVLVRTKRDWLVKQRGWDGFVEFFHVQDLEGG


Key:
[1] = molecular target: T1, A1 protein (mouse, residues 1-152, P104K C113S, used as wild type) (mouse); test: fluorescence dissociation kinetics with competitor; dissociation; preformed complex of TAMRA-labelled peptide and partner protein mixed with excess unlabeled PUMA peptide as competitor; stopped-flow or Cary Eclipse spectrophotometer; 25 °C; 50 mM sodium phosphate, 0.05% (v/v) Tween 20, pH …
[2] = molecular target: T1, A1 protein (mouse, residues 1-152, P104K C113S, used as wild type) (mouse); test: stopped-flow fluorescence kinetics; association; TAMRA-labelled peptide with folded partner at least 10-fold higher (pseudo-first-order); kon from the gradient of kobs versus partner concentration; 25 °C; 50 mM sodium phosphate, 0.05% (v/v) Tween 20, pH 7.0
[3] = molecular target: T1, A1 protein (mouse, residues 1-152, P104K C113S, used as wild type) (mouse); test: stopped-flow fluorescence kinetics + other: fluorescence dissociation kinetics with competitor; Kd calculated as the ratio koff/kon of the kinetic rate constants; 25 °C; 50 mM sodium phosphate, 0.05% (v/v) Tween 20, pH 7.0
[4] = molecular target: T2, MCL-1 (mouse, residues 152-308); test: stopped-flow fluorescence kinetics; association; TAMRA-labelled peptide with folded partner at least 10-fold higher (pseudo-first-order); kon from the gradient of kobs versus partner concentration; 25 °C; 50 mM sodium phosphate, 0.05% (v/v) Tween 20, pH 7.0; settings: both partners purified
Procedure, shortened: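 The association rate constant is the slope of observed rate versus partner concentration, from stopped-flow fluorescence of TAMRA-labelled peptide with mouse MCL-1 (residues 152–308). The partner was in at least 10-fold excess, in 50 mM sodium phosphate, 0.05% (v/v) Tween 20, pH 7.0, at 25 °C. Excitation was at 555 nm with emission above 570 nm, and each observed rate came from a single-exponential fit.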

[5] = molecular target: T2, MCL-1 (mouse, residues 152-308); test: fluorescence dissociation kinetics with competitor; dissociation; preformed complex of TAMRA-labelled peptide and partner protein mixed with excess unlabeled PUMA peptide as competitor; stopped-flow or Cary Eclipse spectrophotometer; 25 °C; 50 mM sodium phosphate, 0.05% (v/v) Tween 20, pH 7.0; settings: both partners purified
Procedure, shortened: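 The dissociation rate constant comes from competitor displacement of a preformed complex of TAMRA-labelled peptide and mouse MCL-1 (residues 152–308), mixed with various concentrations of unlabelled competitor peptide. Runs were at 25 °C in 50 mM sodium phosphate, 0.05% (v/v) Tween 20, pH 7.0, read on stopped-flow (kobs > 0.03 s^−1) or Cary Eclipse (kobs < 0.03 s^−1). Fluorescence changes were fit to single exponentials. With sufficient competitor excess, concentration-independent kobs values were averaged as koff.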

[6] = molecular target: T2, MCL-1 (mouse, residues 152-308); test: stopped-flow fluorescence kinetics + other: fluorescence dissociation kinetics with competitor; Kd calculated as the ratio koff/kon of the kinetic rate constants; 25 °C; 50 mM sodium phosphate, 0.05% (v/v) Tween 20, pH 7.0; settings: both partners purified

Row | Binder | koff [1] | kon [2] | Kd [3] | kon [4] | koff [5] | Kd [6]
1 | {TAMRA}-RVEEEEWAREIGAQLRGAADDLNAQYERRRQEEQH [PUMA R143G peptide (on the M144A wild type), TAMRA-labelled] | 0.0052 s⁻¹ | 3.03e+06 M⁻¹ s⁻¹ | 1.72 nM |  |  | 
2 | {TAMRA}-RVEEEEWAREIGAQLRRAADDLNAQAERRRQEEQH [PUMA Y152A peptide (on the M144A wild type), TAMRA-labelled] | 0.00251 s⁻¹ | 5.1e+06 M⁻¹ s⁻¹ | 0.49 nM |  |  | 
3 | {TAMRA}-RVEEEEWAREIGAQLRRAADALNAQYERRRQEEQH [PUMA D147A peptide (on the M144A wild type), TAMRA-labelled] | 0.00048 s⁻¹ | 9.4e+06 M⁻¹ s⁻¹ | 0.051 nM |  |  | 
4 | {TAMRA}-RVEEEAWAREIGAQLRRAADDLNAQYERRRQEEQH [PUMA E132A peptide (on the M144A wild type), TAMRA-labelled] | 0.00077 s⁻¹ | 8.8e+06 M⁻¹ s⁻¹ | 0.088 nM |  |  | 
5 | {TAMRA}-RVEEEEWAREIGAQLRRAADDLNAQYEARRQEEQH [PUMA R154A peptide (on the M144A wild type), TAMRA-labelled] | 0.00054 s⁻¹ | 4.86e+06 M⁻¹ s⁻¹ | 0.111 nM |  |  | 
6 | {TAMRA}-RVEEEEWAREIGAQLRAAADDLNAQYERRRQEEQH [PUMA R143A peptide (on the M144A wild type), TAMRA-labelled] | 0.00088 s⁻¹ | 3.67e+06 M⁻¹ s⁻¹ | 0.24 nM |  |  | 
7 | {TAMRA}-RVEEEEFAREIGAQLRRAADDLNAQYERRRQEEQH [PUMA W133F peptide (on the M144A wild type), TAMRA-labelled] | 0.00203 s⁻¹ | 4.27e+06 M⁻¹ s⁻¹ | 0.475 nM |  |  | 
8 | {TAMRA}-RVEEEEWAREIGAQLRRAADDLNAQYERRRQEEQH [PUMA peptide (mouse, residues 127-161, M144A, used as wild type), TAMRA-labelled] | 0.0005 s⁻¹ | 5.9e+06 M⁻¹ s⁻¹ | 0.085 nM |  |  | 
9 | {TAMRA}-RVEEEEWAREIGAQLRRAADGLNAQYERRRQEEQH [PUMA D147G peptide (on the M144A wild type), TAMRA-labelled] | 0.00195 s⁻¹ | 6.76e+06 M⁻¹ s⁻¹ | 0.288 nM |  |  | 
10 | {TAMRA}-RVEEEEWAREIGGQLRRAADDLNAQYERRRQEEQH [PUMA A139G peptide (on the M144A wild type), TAMRA-labelled] | 0.00108 s⁻¹ | 3.26e+06 M⁻¹ s⁻¹ | 0.33 nM |  |  | 
11 | {TAMRA}-RVEEEEWARGIGAQLRRAADDLNAQYERRRQEEQH [PUMA E136G peptide (on the M144A wild type), TAMRA-labelled] | 0.00238 s⁻¹ | 8.2e+06 M⁻¹ s⁻¹ | 0.29 nM |  |  | 
12 | {TAMRA}-SESQEEIIHNIARHLAQIGDEMDHNIQPTLVRQLA (BID, mouse, residues 76-110, UniProt P70444; also called WT; source: synthetic peptide (Biomatik)) [BID peptide (mouse, residues 76-110), TAMRA-labelled] | 0.000155 s⁻¹ | 8.2e+06 M⁻¹ s⁻¹ | 0.019 nM | 8.9e+06 M⁻¹ s⁻¹ | 0.003 s⁻¹ | 0.33 nM
13 | {TAMRA}-SESQEEIIHNIARHLAQIGDGMDHNIQPTLVRQLA (peptide, UniProt P70444 76-110, looked up, BID, mouse, residues 76-110, UniProt P70444; source: synthetic peptide (Biomatik)) [BID E96G peptide, TAMRA-labelled] | 0.00077 s⁻¹ | 7.8e+06 M⁻¹ s⁻¹ | 0.098 nM | 1.09e+07 M⁻¹ s⁻¹ | 0.01 s⁻¹ | 0.9 nM
14 | {TAMRA}-SESQEEIIHNAARHLAQIGDEADHNIQPTLVRQLA (peptide, UniProt P70444 76-110, looked up, BID, mouse, residues 76-110, UniProt P70444; source: synthetic peptide (Biomatik)) [BID I86A-M97A peptide, TAMRA-labelled] | 0.11 s⁻¹ | 2.2e+06 M⁻¹ s⁻¹ | 50 nM | 3.5e+06 M⁻¹ s⁻¹ | 1.36 s⁻¹ | 390 nM
15 | {TAMRA}-SESQEEAIHNIARHLAQIGDEMDHNIQPTLVRQLA (peptide, UniProt P70444 76-110, looked up, BID, mouse, residues 76-110, UniProt P70444; source: synthetic peptide (Biomatik)) [BID I82A peptide, TAMRA-labelled] |  |  |  | 9.5e+06 M⁻¹ s⁻¹ | 0.0062 s⁻¹ | 0.65 nM
16 | {TAMRA}-SESQEEIIHNAARHLAQIGDEMDHNIQPTLVRQLA (peptide, UniProt P70444 76-110, looked up, BID, mouse, residues 76-110, UniProt P70444; source: synthetic peptide (Biomatik)) [BID I86A peptide, TAMRA-labelled] | 0.022 s⁻¹ | 2.9e+06 M⁻¹ s⁻¹ | 7.6 nM | 4e+06 M⁻¹ s⁻¹ | 0.14 s⁻¹ | 35 nM
17 | {TAMRA}-SESQEEIIHNIARHLAQIGDAMDHNIQPTLVRQLA (peptide, UniProt P70444 76-110, looked up, BID, mouse, residues 76-110, UniProt P70444; source: synthetic peptide (Biomatik)) [BID E96A peptide, TAMRA-labelled] | 0.000146 s⁻¹ | 1e+07 M⁻¹ s⁻¹ | 0.015 nM | 9.9e+06 M⁻¹ s⁻¹ | 0.0038 s⁻¹ | 0.38 nM
18 | {TAMRA}-SESQEEIIHNIARHLAQAGDEMDHNIQPTLVRQLA (peptide, UniProt P70444 76-110, looked up, BID, mouse, residues 76-110, UniProt P70444; source: synthetic peptide (Biomatik)) [BID I93A peptide, TAMRA-labelled] | 0.0025 s⁻¹ | 5.6e+06 M⁻¹ s⁻¹ | 0.44 nM | 4.5e+06 M⁻¹ s⁻¹ | 0.43 s⁻¹ | 96 nM
19 | {TAMRA}-SESQEEIIHNIARHLAQIGDEMDANIQPTLVRQLA (peptide, UniProt P70444 76-110, looked up, BID, mouse, residues 76-110, UniProt P70444; source: synthetic peptide (Biomatik)) [BID H99A peptide, TAMRA-labelled] |  |  |  | 9.2e+06 M⁻¹ s⁻¹ | 0.001 s⁻¹ | 0.12 nM
20 | {TAMRA}-SESQEEIIHNIARHLAQIGDEMDGNIQPTLVRQLA (peptide, UniProt P70444 76-110, looked up, BID, mouse, residues 76-110, UniProt P70444; source: synthetic peptide (Biomatik)) [BID H99G peptide, TAMRA-labelled] |  |  |  | 9e+06 M⁻¹ s⁻¹ | 0.004 s⁻¹ | 0.4 nM
21 | {TAMRA}-RVEEEEWAREAGAQLRRAADDLNAQYERRRQEEQH [PUMA I137A peptide (on the M144A wild type), TAMRA-labelled] | 0.006 s⁻¹ | 1.64e+06 M⁻¹ s⁻¹ | 3.7 nM |  |  | 
22 | {TAMRA}-RVEEEEWAREIGAQLRRAADDLNGQYERRRQEEQH [PUMA A150G peptide (on the M144A wild type), TAMRA-labelled] | 0.00215 s⁻¹ | 4.84e+06 M⁻¹ s⁻¹ | 0.444 nM |  |  | 
23 | {TAMRA}-RVEEEGWAREIGAQLRRAADDLNAQYERRRQEEQH [PUMA E132G peptide (on the M144A wild type), TAMRA-labelled] | 0.00086 s⁻¹ | 8.4e+06 M⁻¹ s⁻¹ | 0.102 nM |  |  | 
24 | {TAMRA}-RVEEEEWARAIGAQLRRAADDLNAQYERRRQEEQH [PUMA E136A peptide (on the M144A wild type), TAMRA-labelled] | 0.00048 s⁻¹ | 1.04e+07 M⁻¹ s⁻¹ | 0.046 nM |  |  | 
25 | {TAMRA}-RVEEEEWAREIGAQLRRAADDLNAQYEGRRQEEQH [PUMA R154G peptide (on the M144A wild type), TAMRA-labelled] | 0.00044 s⁻¹ | 4.79e+06 M⁻¹ s⁻¹ | 0.092 nM |  |  | 
